{"source": "paper PMC5800599", "origin": "cited, not measured here", "target": "FcγRIIIa/CD16A (Homo sapiens) (UniProt P08637)", "sequence (P08637 17-254)": "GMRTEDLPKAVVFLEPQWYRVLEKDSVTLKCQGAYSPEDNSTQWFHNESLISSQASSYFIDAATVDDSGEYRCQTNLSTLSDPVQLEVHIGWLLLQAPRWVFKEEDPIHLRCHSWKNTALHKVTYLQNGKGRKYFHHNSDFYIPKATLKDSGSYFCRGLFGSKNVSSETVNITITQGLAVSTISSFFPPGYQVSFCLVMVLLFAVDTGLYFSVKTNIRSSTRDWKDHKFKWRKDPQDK"}
{"substance": "hIgG1 Fc Fc (from UniProt P01857)", "values": [{"measurement": "Kd", "value": 550, "unit": "nM"}]}
